T1: human CD276 protein (human, UniProt Q5ZPR3 29-534)
T1 construct: whole, on cells; for SKOV3 and the other cancer lines the protein is the cells' own; also called B7-H3; B7H3
T1 sequence (looked up): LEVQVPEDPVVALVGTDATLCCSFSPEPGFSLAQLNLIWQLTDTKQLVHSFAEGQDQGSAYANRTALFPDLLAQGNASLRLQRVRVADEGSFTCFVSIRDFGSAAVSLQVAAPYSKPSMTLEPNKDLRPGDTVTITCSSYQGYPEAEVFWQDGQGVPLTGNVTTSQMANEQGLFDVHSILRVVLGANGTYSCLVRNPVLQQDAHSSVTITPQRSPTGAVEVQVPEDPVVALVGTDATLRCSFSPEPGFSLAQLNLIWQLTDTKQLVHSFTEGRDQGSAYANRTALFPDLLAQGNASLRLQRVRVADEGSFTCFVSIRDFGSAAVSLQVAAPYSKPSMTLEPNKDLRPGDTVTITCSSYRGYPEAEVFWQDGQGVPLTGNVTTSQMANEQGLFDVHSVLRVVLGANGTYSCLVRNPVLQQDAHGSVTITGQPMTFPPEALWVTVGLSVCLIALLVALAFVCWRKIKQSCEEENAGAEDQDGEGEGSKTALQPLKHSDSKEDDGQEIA

T2: HUMAN B7H3 (Biacore analyte) (human, UniProt Q5ZPR3 29-461, limits assumed)
T2 construct: also called hB7H3
T2 sequence (looked up): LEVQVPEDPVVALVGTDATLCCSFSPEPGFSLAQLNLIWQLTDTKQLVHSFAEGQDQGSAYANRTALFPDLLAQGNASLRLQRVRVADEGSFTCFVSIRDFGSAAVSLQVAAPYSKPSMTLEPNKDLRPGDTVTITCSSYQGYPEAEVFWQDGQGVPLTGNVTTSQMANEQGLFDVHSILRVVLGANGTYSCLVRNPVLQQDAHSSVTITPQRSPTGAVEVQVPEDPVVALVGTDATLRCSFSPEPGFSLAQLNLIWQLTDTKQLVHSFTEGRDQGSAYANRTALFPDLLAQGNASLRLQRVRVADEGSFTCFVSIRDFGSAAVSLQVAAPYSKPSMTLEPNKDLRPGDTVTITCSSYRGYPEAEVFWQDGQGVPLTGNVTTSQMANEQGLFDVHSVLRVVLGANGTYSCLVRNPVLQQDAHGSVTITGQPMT


Key:
[1] = biological target: T1, human CD276 protein; assay: FACS on SKOV3 cells
Description: Sequences of 31 mouse antibodies from Table 5 were selected to generate and produce human IgG1 chimeric antibodies. The binding affinity of these antibodies and bench mark antibody, Enoblituzumab (see U.S. Pat. No. 8,802,091, MGA271, specifically with a construct designated as hBRCA84D-2) and MGC018 (an antibody-drug-conjugate, in which the mAb MGA017 (human IgG1) is conjugated via a cleavable linker to the prodrug seco-DUocarmycin hydroxyBenzamide Azaindole (DUBA), an alkylating agent that can damage DNA in both dividing and non-dividing cells, thereby causing cell death) with human patient derived ovarian cancer cell line, SKOV3, was determined by FACS analysis.
1. Digested cells using Trypsin (1×); Centrifuged the harvested cells at 300 g for 3 min and discarding the supernatant. […] 2. Washed the cells 2 times with FACS buffer by centrifuging at 300 g for 3 min and discarding the supernatant. [0445] 3. […] Kept the cells in dark for FACS analysis.

[2] = biological target: T1, human CD276 protein; assay: cell-based or functional assay
[3] = biological target: T1, human CD276 protein; assay: cell-based or functional assay; remark: listed apart in the source
[4] = biological target: T2, HUMAN B7H3 (Biacore analyte); assay: SPR, Biacore 8K, antibody captured, B7H3 as analyte, 1:1 binding

Binder	EC50 [1] [µg/mL]	MFI (Max) [1]	EC50 of antibody induced ADCC effect on SKOV3 [2] [µg/mL]	EC50 of antibody induced CDC effect [3] [nM]	Top cytotoxicity (%), CDC [3] [%]	Kd [4] [nM]	koff [4] [s⁻¹]	kon [4] [M⁻¹ s⁻¹]
23-F10-G4-F11 (human IgG1 chimeric antibody) (antibody, V domains shown, human IgG1 chimeric antibody of the mouse clone) VH: EVQLQESGPDLVRPGALVKLSCKSSGFNIKDYPIHWVRQRPEQGLEWIGWFDPDNGNVIYDPRFQGKASITADTSSNTAYLQLNSLTSEDTAVYYCSSPYGAMDYWGQGTSVTVSS VL: QIVLTQSPEIMSASPGEKVTMTCSASSSVSYIHWYQQKSGTSPKRWIYDTSKLASGVPARFSGSGSGTSYSLTIRSMEAEDAATYYCQQGSSNPRTFGGGTKLEIK	4.42	6720	0.137					
11-G10-B4-B11 (human IgG1 chimeric antibody) (antibody, V domains shown, human IgG1 chimeric antibody of the mouse clone) VH: DVQLQESGPGLVKPSQSLSLTCTVTGYSITSDYAWNWIRQFPGNKLEWMGYISYSGSTSYNPSLKSRISITRDTSKNQFFLQLNSVTTEDTATYYCARGGPWFAYWGQGTLVTVSA VL: DVVMTQTPLSLPVSLGDQASISCRSSQSLVHSNGNTYLHWYLQKPGQSPKLLIYKVSNRFSGVPDRFSGSGSGTDFTLKISRVEAEDLGVYFCSQSTHVPFTFGSGTKLEIK	0.536	3750	17.3					
20-F8-B5-G2 (human IgG1 chimeric antibody) (antibody, V domains shown, human IgG1 chimeric antibody of the mouse clone) VH: EVQLQESGPSLVKPSQTLSLTCSVTGDSITSAYWNWIRKFPGNKLEYMGYISNSGSTYYNPSLKSRISITRDTSKNQYYLQLNSVTTEDTGTYYCVRGERYYGYGAYWGQGTLVTVSA VL: DIVMTQATPSVPVTPGESISISCRSSKSLLHSNGNTYLYWFLQRPGQSPQLLIYRMSNLASGVPDRFSGSGSGTAFTLRISRVEAEDVGVYYCMQHLEYPFTFGAGTKLELK	1.11	3010	3.01					
9-G2-H6-E4 (human IgG1 chimeric antibody) (antibody, V domains shown, human IgG1 chimeric antibody of the mouse clone) VH: EVQLQQSGPDLVKPGASVKISCKASGYSFTGYFMNWVKQRHGKSLEWIGYINPNNGDTIYNQKFKGKATLTVDKSSSTAHMELLSLTSEDSAVYYCGRGGLPFGALDYWGQGTSVTVSS VL: DIVMSQSPSSLAVSVGEKVNMSCKSSQSLLYSRNQKNYLAWNQQKPGQSPKLLIYWASARESGVPDRFTGSGSGTDFTLTISSVKAEDLAAYYCQQYHSYPYTFGGGTKLELK	3.66	292	13.6					
16-G3-D10-C10 (human IgG1 chimeric antibody) (antibody, V domains shown, human IgG1 chimeric antibody of the mouse clone) VH: QIQLVQSGPELKKPGETVKISCKASGYTFRNYGMNWVKQGPGKDLKWMGWINPYTGEPTYIGDFKGRFAFSLETSANSAYLQINNLNNEDMATYFCARDDGYWYTMDYWGQGTSVTVSS VL: DVVMTQTPPSLPVSLGDQASIPCRSSQSLVHSNGITYLHWYLQKPGQSPKLLIYKVSNRFSGVPDRFSGSGSGTDFTLKISRVEAEDLGVYFCSQSTHVPWTFGGGTKLEIK	1.31	3180	0.0419	1.43	93.6	1.16	0.000214	185000
21-B3-B1-H5 (human IgG1 chimeric antibody) (antibody, V domains shown, human IgG1 chimeric antibody of the mouse clone) VH: QIQLVQSGPELKKPGETVKISCKASGYIFRNYGMNWVKQAPGKGLKWMGWINSYTGKPTYVDDFKGRFAFSLETSASTAYLQINNLKNEDMATYFCARDDGYWYTMDYWGQGTSVTVSS VL: DVVMTQTPLSLPVSLGDQASISCRSSQSLVHSNGHTYLHWYLQKPGQSPKLLIYKVSNRFSGVPDRFSGSGSGTDFTLKISRVEAEDLGVYFCSQSTHVPWTFGGGTKLEIK	0.723	2720	0.648					
15-G1-D1-E3 (human IgG1 chimeric antibody) (antibody, V domains shown, human IgG1 chimeric antibody of the mouse clone) VH: QVQLQQPGAELVKPGTSVKLSCKASGYTFTSYWIHWVKQRPGQGLEWIGMIHPKSGTVDYNEKFKSKATLTADKSSNTAYMQLSSLTSEASVVYYCARGENYDYRPQFVYWGQGTLVTVSA VL: QLVLTQSSSASFSLGASAKLTCTLSSQHSTYTIEWYQQQPLKPPKYVMELKKDGSHRTGDGIPDRFSGSSSGADRYLSISNIQPEDEAIYICGVGDTIKEQFVYVFGGGTKVTVL	0.811	3190	0.0655			0.383	0.000211	550000
27-F8-E10-E11 (human IgG1 chimeric antibody) (antibody, V domains shown, human IgG1 chimeric antibody of the mouse clone) VH: EVQLQQSGPELVKPGASVKISCKTSGYTFTEYAMHWVKQSHGKILEWIGGINPNIGGTTYNQKFKDKATLTVDKSSSTASMELRSLTSEDSAVYYCARFLVPSTEGFTYWGQGTLVTVSA VL: QIVLTQSPAIMSASPGEKVTMTCSASSSVSYMHWYQQKSGTSPKRWIYDTSRVASGVPARFSGSGSGTSYSLTISSMEAEDAATYYCQQWSSNPLTFGAGTKLELK	2.26	3220	0.0238			0.621	0.000173	278000
3-G7-D8-D3 (human IgG1 chimeric antibody) (antibody, V domains shown, human IgG1 chimeric antibody of the mouse clone) VH: QVQLQQSGAELARPGTSVKLSCKASGYTFTTYWIQWVKQRPGQGLEWIGAIYPGDGDTRYTQKFKGKATLTADKSSSTAYMQLSTLASEDSAVYYCARPYDGYYIDYPMDSWGQGTSVTVSS VL: QIVLTQSPAIMSASPGEKVTMTCSASSRINYMHWYQQKPGTSPIIWIYDTSKLASGVPARFSGSGSGTSYSLTISSMEAEDAATYYCHQRSSYPFTFGSGTKLEIK	0.509	1210	0.00898					
14-E7-G9-D4 (human IgG1 chimeric antibody) (antibody, V domains shown, human IgG1 chimeric antibody of the mouse clone) VH: EVQLQQSGPELVKPGASVKMSCKASGYTFTNYIMHWVKQKPGQGLEWIGYINPYNDGIKYNEKFKGKATLTSDKSSSTAYMELSSLTSEDSAVYYCTRWGNYVFYYTMDYWGQGTSVTVSS VL: QIVLSQSPAILSASPGEKVTMTCRASSSVSYMHWYQQKPGSSPKPWIYATSNLASGVPARFSGSGSGTSYSLTISRMEAEDAATYYCQQWSGNPPLTFGAGTKLELK	1.62	2730	0.252					
27-E7-D8-C7 (human IgG1 chimeric antibody) (antibody, V domains shown, human IgG1 chimeric antibody of the mouse clone) VH: EVQLQESGPELVRPGVSVKISCKGSGYTFTDYAMHWVKQSHAKSLEWIGVINTYSDNTNYNRKFKGKATMTVDKSSSTAYMELARLTSEDSAIYYCARGLLLRSQLGVYFDYWGQGTTLTVSS VL: QIVLSQSPAILSASPGEKVTMTCRASSSVSYMHWYQQKPGSSPKPWIYATSNLASGVPARFSGSGSGTSYSLTISRVEAEDAATYYCQQWSSNPWTFGGGTKLEIK	0.542	4750	0.103					
3-C2-C3-E7 (human IgG1 chimeric antibody) (antibody, V domains shown, human IgG1 chimeric antibody of the mouse clone) VH: EVQLQQSGPELVKPGASVKISCKTSGYTFTENTMHWVKQSHGKRLEWIGGINPNTGGTTYNQKFKGKATLTVDKSSSTAYMELRSLTSEDSAVYYCARRGTNWEHWYFDVWGAGTTVTVSS VL: QIVLTQSPAIMSASPGEKVTMTCSASSSVSYMHWYQQKSGTSPKRWIYDTSKLASGVPARFSGSGSGTSYSLTISSMEAEDAATYYCQQWSSNPLTFGAGTKLELK	1.43	3700	0.186					
30-E2-G7-G7 (human IgG1 chimeric antibody) (antibody, V domains shown, human IgG1 chimeric antibody of the mouse clone) VH: EVQLQESGGGLVKPGGSLKLSCAASGFTFSYYAMSWVRQTPEKRLEWVATINGDGSHTYYPDSVRGRFTISRDNAKNTLYLQVSSLRSEDTAMYYCASLLQLGPFWGQGTTLTVSS VL: DIVMTQSQKFMSTSVGDRVSVTCKASQNVGTNVAWYHQRPGQSPKPLIYSASYRYSGVPDRFTGSGSGTDFTLTISNVQSEDLAEYFCQQYNNYPLTFGSGTKLEIK	0.814	5630	0.247					

— patent US20240400689A1 (ANTENGENE BIOLOGICS, published 2024)
